Substrate in the series: CC(=O)CC(=O)SCCNC(=O)CCNC(=O)[C@H](O)C(C)(C)COP(=O)(O)OP(=O)(O)OC[C@H]1O[C@@H](n2cnc3c(N)ncnc32)[C@H](O)[C@@H]1OP(=O)(O)O
As to the kind of experiment: purified protein. The format is biochemical, Pseudomonas putida. The settings on record: thiolytic cleavage, 70 μM CoASH, 25 mM MgCl2, 0.1 M Tris-HCl pH 8.3, 37 °C.

B1: PcaF (β-ketoadipyl-CoA thiolase) (Pseudomonas putida KT2440) (protein)
chain: MHDVFICDAIRTPIGRFGGALASVRADDLAAVPLKALIERNPGVQWDQVDEVFFGCANQAGEDNRNVARMALLLAGLPESIPGVTLNRLCASGMDAVGTAFRAIASGEMELVIAGGVESMSRAPFVMGKAESAYSRNMKLEDTTIGWRFINPLMKSQYGVDSMPETADNVADDYQVSRADQDAFALRSQQKAAAAQAAGFFAEEIVPVRIAHKKGEIIVERDEHLRPETTLEALTKLKPVNGPDKTVTAGNASGVNDGAAAMILASAAAVKKHGLTPRARVLGMASGGVAPRVMGIGPVPAVRKLTERLGIAVSDFDVIELNEAFASQGLAVLRELGVADDAPQVNPNGGAIALGHPLGMSGARLVLTALHQLEKSGGRKGLATMCVGVGQGLALAIERV
notes: full length, 400 residues plus 22 vector residues; N-terminal His-tag with TEV site, pSGC-His, E. coli BL21(DE3) pLysS; tetramer
For the protein B1, the Km came out at 67.8 ± 8.2 µM and the kcat came to 0.7 ± 0.08 S^−1.
